In PMC7472727, “Novel Escherichia coli RNA Polymerase Binding Protein Encoded by Bacteriophage T5”:

Biological target: RNAP holoenzyme with [211Cys-TMR] sigma70 (RNAP beacon);gpT5.026 (Escherichia coli;Escherichia phage T5, UniProt P0A7Z4;P0A8V2;P0A8T7;P0A800;P00579;Q6QGR1 1-329;1-1342;1-1407;2-91;1-613;1-153, S211C|)
Assay: fluorescence RNAP beacon titration; 100 nM gpT5.026 preincubated 15 min; 40 mM Tris-HCl pH 8.0, 100 mM NaCl, 5% glycerol, 1 mM DTT, 10 mM MgCl2, 0.02% Tween 20, 25 C; 1 nM labeled RNAP holoenzyme
Conditions: protein: recombinant;recombinant; chain copies: 2;1;1;1;1;1

B1: [-38/-12] upstream double-stranded probe (dsDNA)
DNA 1: TATTTGACATCAGGAAAATTTTTTGGT
DNA 2: ACCAAAAAATTTTCCTGATGTCAAATA
binding signal: ~3 fold higher affinity than without gpT5.026
